Data reported in article PMC11440508, “Dually Labeled Neurotensin NTS1R Ligands for Probing Radiochemical and Fluorescence-Based Binding Assays” (Journal of Medicinal Chemistry, 2024).
Starred links: 1 amine or outer side, 2 acyl side, 3 side chain; linkers in the order of their positions; H or OH if unused. Non-standard residues stand in square brackets, D forms with d. No end group written: not given here. *: point of attachment. 5‑TAMRA = CN(C)c1ccc2c(-c3ccc(C(=O)*)cc3C(=O)[O-])c3ccc(N(C)C)cc3[o+]c2c1; Propanoyl(3-triazol-4-yl) = O=C(CCc1cn([*:1])nn1)[*:2]; Gly(piperidin-4-yl) = N[C@H](C(=O)O)C1CCNCC1; Pent4ynoyl = C#CCCC(=O)*; Pra = C#CC[C@H](N)C(=O)O

What was measured:
[1] = target: T1, human neurotensin receptor type 1 (hNTS1R), endogenous in HT-29 colon carcinoma cells (human (endogenous in HT-29), UniProt P30989 1-418); test: radioligand binding; competition with [^3H]UR-MK300 at intact hNTS1R-expressing HT-29 cells, 23 ± 1 °C; pIC50 converted to pKi (Cheng–Prusoff); settings: one partner purified
T1 construct: human neurotensin receptor type 1 (hNTS1R), endogenously expressed in HT-29 colon carcinoma cells; also called HT-29 cells; source: endogenous, intact HT-29 colon carcinoma cells
T1 sequence (P30989 whole entry): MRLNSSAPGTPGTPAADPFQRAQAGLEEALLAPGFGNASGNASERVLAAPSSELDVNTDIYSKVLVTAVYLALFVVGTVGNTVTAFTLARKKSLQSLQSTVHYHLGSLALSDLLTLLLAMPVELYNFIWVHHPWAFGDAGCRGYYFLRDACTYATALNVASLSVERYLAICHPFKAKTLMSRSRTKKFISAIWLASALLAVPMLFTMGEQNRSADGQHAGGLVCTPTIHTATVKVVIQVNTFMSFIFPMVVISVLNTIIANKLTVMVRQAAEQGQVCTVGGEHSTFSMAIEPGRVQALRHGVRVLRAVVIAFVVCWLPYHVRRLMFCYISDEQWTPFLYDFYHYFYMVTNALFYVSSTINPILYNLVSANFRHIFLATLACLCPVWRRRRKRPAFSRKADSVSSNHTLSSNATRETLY

[2] = target: T2, human neurotensin receptor type 1 (hNTS1R), stably expressed in CHO cells (human, UniProt P30989 1-418); test: radioligand binding; saturation binding at intact suspended CHO-hNTS1R cells, 96-well plates, filtration, DPBS1 with 1% BSA, 23 ± 1 °C; settings: one partner purified
T2 construct: human neurotensin receptor type 1 (hNTS1R), wild type, stably expressed in Chinese hamster ovary cells; also called CHO-hNTS1R cells; CHO-NTS1R cells; source: CHO cells stably expressing hNTS1R; intact adherent cells, intact suspended cells and membrane preparations
T2 sequence (P30989 whole entry): as above

[3] = target: T1, human neurotensin receptor type 1 …; test: radioligand binding; saturation binding at intact adherent cells (CHO-hNTS1R or HT-29), DPBS1 with 1% BSA, 23 ± 1 °C; radioligand 1:1 diluted with its cold analogue; settings: one partner purified
[4] = target: T2, human neurotensin receptor type 1 …; test: as above; settings: one partner purified
[5] = target: T2, human neurotensin receptor type 1 …; test: radioligand binding; association (1.3 nM [^3H]13, 1.1 nM [^3H]18; biphasic fit) and dissociation (started with 1 μM NT(8–13)) at intact adherent CHO-hNTS1R cells, DPBS1, 23 ± 1 °C; kon(fast) and Kd(kin) calculated; settings: one partner purified
[6] = target: T2, human neurotensin receptor type 1 …; test: radioligand binding; association (1.8 nM [^3H]13, 1.2 nM [^3H]18; 96-well plates; biphasic fit) and dissociation (50 mL falcon tubes, started with 25 μM NT(8–13)) at intact suspended CHO-hNTS1R cells, DPBS1, 23 ± 1 °C; kon(fast) and Kd(kin) calculated; settings: one partner purified
[7] = target: T2, human neurotensin receptor type 1 …; test: cell-based or functional assay
[8] = target: T2, human neurotensin receptor type 1 …; test: radioligand binding; saturation binding at membranes of CHO-hNTS1R cells, DPBS1 with 50 μM GppNHp and 100 μg/mL saponin, 23 °C; settings: one partner purified
[9] = target: T2, human neurotensin receptor type 1 …; test: radioligand binding; association (2.5 nM) and dissociation (12 nM preincubation, 30 min) at membranes of CHO-hNTS1R cells, DPBS1 with 50 μM GppNHp and 100 μg/mL saponin, 23 °C; kon and Kd(kin) calculated; settings: one partner purified
[10] = target: T3, human neurotensin receptor type 2 (hNTS2R) in homogenates of HEK293T cells (human, UniProt O95665 1-410); test: radioligand binding; competition with [^3H]UR-MK300 at homogenates of HEK293T cells transiently transfected with hNTS2R; Tris buffer (50 mM Tris HCl, 1 mM EDTA, pH 7.4) with 0.1% BSA; settings: one partner purified
T3 construct: human neurotensin receptor type 2 (hNTS2R); also called HEK293T-hNTS2R cells; source: HEK293T, transiently transfected, homogenates
T3 sequence (O95665 whole entry): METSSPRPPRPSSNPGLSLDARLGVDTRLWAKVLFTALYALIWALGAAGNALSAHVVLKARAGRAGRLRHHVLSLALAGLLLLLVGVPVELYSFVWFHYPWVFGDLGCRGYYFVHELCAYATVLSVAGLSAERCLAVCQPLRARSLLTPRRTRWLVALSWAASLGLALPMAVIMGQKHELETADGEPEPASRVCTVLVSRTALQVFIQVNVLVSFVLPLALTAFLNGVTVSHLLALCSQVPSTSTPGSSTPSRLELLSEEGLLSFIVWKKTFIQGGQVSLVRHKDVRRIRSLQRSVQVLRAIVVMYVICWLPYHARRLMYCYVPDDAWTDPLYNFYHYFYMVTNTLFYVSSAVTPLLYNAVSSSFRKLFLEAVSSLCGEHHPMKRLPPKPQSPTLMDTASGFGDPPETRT

[11] = target: T1, human neurotensin receptor type 1 …; test: flow cytometry on cells; equilibrium saturation binding at intact suspended CHO-hNTS1R or HT-29 cells, 96-well plates, DPBS1, 23 ± 1 °C, homogeneous; unspecific binding with 1 μM NT(8–13); settings: one partner purified
[12] = target: T2, human neurotensin receptor type 1 …; test: as above; settings: one partner purified
[13] = target: T4, hNTS1R displayed on budded baculovirus particles (NTS1R-BBV) (human, UniProt P30989 1-418); test: fluorescence polarisation; fluorescence anisotropy, association and dissociation (started with 1 μM SR142948) at hNTS1R-displaying BBVs, 27 °C, DPBS2; kon and Kd(kin) from a fit with koff constrained; settings: one partner purified
T4 construct: human neurotensin receptor type 1 (hNTS1R) from pcDNA3.1-hNTS1-NlucC, subcloned into pIMACE-CMVintP10; also called hNTS1R-displaying BBVs; hNTS1R-Nluc
T4 sequence (P30989 whole entry): as the sequence (P30989 whole entry) above

[14] = target: T4, hNTS1R displayed on budded baculovirus …; test: fluorescence polarisation; fluorescence anisotropy, equilibrium binding: fixed ligand (0.3 or 1 nM), increasing amounts of hNTS1R-displaying BBVs, signal at 10 min, 27 °C, DPBS2; unspecific binding with 1 μM SR142948; settings: one partner purified
[15] = target: T2, human neurotensin receptor type 1 …; test: flow cytometry on cells; association (1 nM ligand) and dissociation (10 nM preincubation, started with ca. 25 μM NT(8–13)) at intact suspended CHO-hNTS1R cells, 5 mL tubes, DPBS1, 23 ± 1 °C; kon and Kd(kin) calculated; settings: one partner purified
[16] = target: T2, human neurotensin receptor type 1 …; test: high-content imaging (HCI) of fluorescent ligand on cells; association (2.5 nM ligand) and dissociation (started with 1 μM NT(8–13)) at intact adherent CHO-hNTS1R cells, DPBS1, 23 ± 1 °C; kon = (kobs – koff)/[FL], Kd(kin) = koff/kon; settings: one partner purified
[17] = target: T1, human neurotensin receptor type 1 …; test: high-content imaging (HCI) of fluorescent ligand on cells; equilibrium saturation binding at intact adherent CHO-hNTS1R or HT-29 cells, DPBS1 with 0.1% BSA, 23 ± 1 °C, washing step before reading; unspecific binding with 1 μM NT(8–13); settings: one partner purified
[18] = target: T2, human neurotensin receptor type 1 …; test: as above; settings: one partner purified

B1: 5-TAMRA-labeled, propionylated NT(6–13) derivative 15 (peptide)
peptide: {5‑TAMRA-Propanoyl(3-triazol-4-yl)}-[dK](propanoyl)PRRPYIL
notes: neurotensin NT(6–13) with D-Lys at position 6, printed in three-letter code; numbers count on: the mature neurotensin; also called peptide 15; source: synthetic peptide (from 8 by propionylation and click reaction, preparative HPLC)
- Ki [1]: 3 nM

B2: [^3H]18, tritiated analogue of the Cy3B-labeled peptide 18 (peptide)
chain: XPRRPYIL
modifications: as 18, with a [^3H]propionyl instead of the propionyl group at the N^ω-carbamoylated Arg8; N-terminal Cy3B through a triazolylpropanoyl group; position 6 (X) = pipGly; position 11 = …
- Kd [2]: 1.2 nM
- Kd [3]: 1.9 nM
- Kd [4]: 1.1 nM
- koff [5]: 0.000433 s⁻¹
- koff [6]: 0.0005 s⁻¹

B3: 5-TAMRA-labeled, propionylated NT(6–13) derivative 16 (peptide)
chain: {4‑(N-propanoyl)aminobutanoyl}-X[Gly(piperidin-4-yl)]PRRPYIL
modifications: not fully specified (residue 1); printed as *N*^α^-[(4-(*N*-Propanoyl)aminobutanoyl)]-2-(1-(1-*N*-((1-carboxylato-2-(6-(dimethylamino)-3-(dimethyliminio)-3*H*-xanthen-9-yl)phen-5-yl)1-oxomethyl)aminoprop-3-yl-1*H*-1,2,3-triazol-4-yl)methyl)-Gly-2-(piperidin-4-yl)-Gly-Pro-Arg-Arg-Pro-Tyr-Ile-Leu
- Ki [1]: 0.77 nM

B4: N^α-(Pent-4-ynoyl)-2-(piperidin-4-yl)-Gly-Pro-N^ω-[(4-aminobutyl)aminocarbonyl]Arg-Arg-Pro-β,β-dimethyl-D-Tyr-Ile-Leu (10b) (peptide)
chain: XPRRPYIL
modifications: N-terminal N^α-(pent-4-ynoyl); position 6 (X) = 2-(piperidin-4-yl)-Gly (pipGly); Arg8 = N^ω-[(4-aminobutyl)aminocarbonyl]Arg; position 11 = β,β-dimethyl-D-Tyr
- Ki [1]: 140 nM

Binder: {4‑aminobutanoyl}-[Pra][Gly(piperidin-4-yl)]PRRPYIL [N^α-(4-Aminobutanoyl)-2-(prop-2-ynyl)-Gly-2-(piperidin-4-yl)-Gly-Pro-Arg-Arg-Pro-Tyr-Ile-Leu (9)]
- Ki [1]: 0.33 nM

B5: N^α-(Pent-4-ynoyl)-Lys-Pro-Arg-Arg-Pro-Tyr-Ile-Leu (7) (peptide)
peptide: Pent4ynoyl-KPRRPYIL
notes: neurotensin NT(6–13), printed in three-letter code; numbers count on: the mature neurotensin; also called peptide 7; source: synthetic peptide (SPPS, preparative HPLC)
- Ki [1]: 0.54 nM

B6: N^α-(Pent-4-ynoyl)-D-Lys-Pro-Arg-Arg-Pro-Tyr-Ile-Leu (8) (peptide)
peptide: Pent4ynoyl-[dK]PRRPYIL
notes: neurotensin NT(6–13) with D-Lys at position 6, printed in three-letter code; numbers count on: the mature neurotensin; also called peptide 8; source: synthetic peptide (SPPS, preparative HPLC)
- Ki [1]: 0.85 nM

B7: N^α-(Pent-4-ynoyl)-2-(piperidin-4-yl)-Gly-Pro-N^ω-[(4-aminobutyl)aminocarbonyl]Arg-Arg-Pro-β,β-dimethyl-L-Tyr-Ile-Leu (10a) (peptide)
chain: XPRRPYIL
modifications: N-terminal N^α-(pent-4-ynoyl); position 6 (X) = 2-(piperidin-4-yl)-Gly (pipGly); Arg8 = N^ω-[(4-aminobutyl)aminocarbonyl]Arg; position 11 = β,β-dimethyl-L-Tyr
- EC50 of NTS1R agonism, Fura-2 Ca^2+ assay at CHO-NTS1R cells [7]: 0.32 nM
- Ki [1]: 1.1 nM

B8: [^3H]13, tritiated analogue of the 5-TAMRA-labeled peptide 13 (peptide)
chain: XPRRPYIL
modifications: as 13, with a [^3H]propionyl instead of the propionyl group at the N^ω-carbamoylated Arg8; N-terminal 5-TAMRA through a triazolylpropanoyl group; position 6 (X) = pipGly
- Kd [8]: 6.2 nM
- Kd [2]: 1.8 nM
- Kd [3]: 1.2 nM
- Kd [4]: 1.3 nM
- Kd [9]: 2.7 nM
- koff [9]: 0.00617 s⁻¹
- kon [9]: 2.17e+06 M⁻¹ s⁻¹
- koff [5]: 0.000233 s⁻¹
- koff [6]: 0.0006 s⁻¹

B9: N^α-(Pent-4-ynoyl)-2-(piperidin-4-yl)-Gly-Pro-N^ω-[(4-aminobutyl)aminocarbonyl]Arg-Arg-Pro-Tyr-Ile-Leu (6) (peptide)
chain: XPRRPYIL
modifications: N-terminal N^α-(pent-4-ynoyl); position 6 (X) = 2-(piperidin-4-yl)-Gly (pipGly); Arg8 = N^ω-[(4-aminobutyl)aminocarbonyl]Arg
- EC50 of NTS1R agonism, Fura-2 Ca^2+ assay at CHO-NTS1R cells [7]: 0.0065 nM
- Ki [1]: 0.64 nM

B10: 5-TAMRA-labeled, propionylated NT(6–13) derivative 14 (peptide)
peptide: {5‑TAMRA-Propanoyl(3-triazol-4-yl)}-K(propanoyl)PRRPYIL
notes: neurotensin NT(6–13), printed in three-letter code; numbers count on: the mature neurotensin; also called peptide 14; source: synthetic peptide (from 7 by propionylation and click reaction, preparative HPLC)
- Ki [1]: 1.5 nM

B11: 5-TAMRA-labeled, propionylated NT(6–13) derivative 13 (UR-FE051) (peptide)
chain: XPRRPYIL
modifications: N-terminus: 5-TAMRA attached through a 3-(1H-1,2,3-triazol-4-yl)propanoyl group; position 6 (X) = 2-(piperidin-4-yl)-Gly (pipGly); Arg8 = N^ω-[(4-(N-propanoyl)aminobutyl)aminocarbonyl]Arg
- EC50 of NTS1R agonism, Fura-2 Ca^2+ assay at CHO-NTS1R cells [7]: 0.05 nM
- Ki [1]: 1.1 nM
- Ki [10]: 2.4 nM
- Kd [11]: 0.25 nM
- Kd [12]: 2.6 nM
- Kd [13]: 1 nM
- koff [13]: 0.0102 s⁻¹
- kon [13]: 1.67e+07 M⁻¹ s⁻¹
- Kd [14]: 1.3 nM
- Kd [15]: 0.041 nM
- koff [15]: 0.000333 s⁻¹
- kon [15]: 8e+06 M⁻¹ s⁻¹
- Kd [16]: 2.8 nM
- koff [16]: 0.000733 s⁻¹
- kon [16]: 267000 M⁻¹ s⁻¹
- Kd [17]: 4.7 nM
- Kd [18]: 1.1 nM
